Measured values reported in FireProtDB (doi:10.1016/s0022-2836(02)00630-7).

Conditions: Escherichia coli (strain K12), pH 7, CD, Potassium phosphate 10 mM, reversible: yes

Substance: Phosphocarrier protein HPr wild type, P0AA04
- denaturant m value (25 °C, Urea): 1.06 kcal/mol/M
- denaturant midpoint (higher = more stable) (25 °C, Urea): 4.34 M
- Tm (Thermal): 63.4 °C
- unfolding enthalpy (van 't Hoff) (Thermal): 75.8 kcal/mol
